Values of other authors as cited in patent US20090069376A1, “VLA-4 Antagonists” (priority 2005, published 2009).

Molecular target: VLA-4 (Homo sapiens, UniProt P13612)
Details: early clinical trials

## natalizumab
  receptor occupancy: > 80%
